Data reported in US20250171542A1 (ADEPT THERAPEUTICS, published 2025).
Blank lines part the entries; values can stand above or below the binder they belong to.

How the values were obtained:
[1] = molecular target: T1, human PD-L1 expressed on cell surface (human, UniProt Q9NZQ7 19-290); experiment: cell-based or functional assay
[2] = molecular target: T2, cynomolgus PD-L1-His (Sino Biological, Cat. 90251-C08H) (cynomolgus, UniProt Q9NZQ7 19-238 (human entry)); experiment: BLI (Gator), cynomolgus PD-L1
T2 construct: Bought protein; also called Cyno PD-L1; Cynomolgus PD-L1 ECD-His; not shown: His tag

[3] = molecular target: T3, rat PD-L1 (Sino Biological, Cat #80450-R08H) (rat, UniProt D4AE25 19-239); experiment: ELISA
T3 construct: not shown: The vendor's polyhistidine tag

[4] = molecular target: T4, CD80 (Sino Biological, Cat #10698-H08H) (UniProt P33681 35-242); experiment: ELISA
T4 sequence (looked up): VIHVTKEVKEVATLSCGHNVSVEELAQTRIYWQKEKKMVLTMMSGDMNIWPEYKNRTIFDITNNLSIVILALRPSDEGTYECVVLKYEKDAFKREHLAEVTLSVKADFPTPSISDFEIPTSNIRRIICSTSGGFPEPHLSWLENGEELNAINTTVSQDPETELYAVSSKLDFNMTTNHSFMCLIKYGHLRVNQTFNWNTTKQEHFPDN

[5] = molecular target: T5, canine PD-L1 (Acro Biosystems, Cat #PDL-C52H4) (canine, UniProt E2RKZ5 19-236); experiment: ELISA
T5 construct: not shown: The vendor's tag, probably a polyhistidine tag
T5 sequence: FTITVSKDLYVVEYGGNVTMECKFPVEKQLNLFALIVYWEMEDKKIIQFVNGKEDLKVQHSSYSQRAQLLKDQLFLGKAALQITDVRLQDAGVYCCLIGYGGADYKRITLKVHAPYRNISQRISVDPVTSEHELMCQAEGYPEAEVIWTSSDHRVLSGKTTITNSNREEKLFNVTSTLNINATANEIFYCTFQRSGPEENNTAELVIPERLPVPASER

[6] = molecular target: T6, BH-H2 (Sino Biological, Cat #11559-H08H) (UniProt O75144 19-258); experiment: ELISA
T6 sequence (looked up): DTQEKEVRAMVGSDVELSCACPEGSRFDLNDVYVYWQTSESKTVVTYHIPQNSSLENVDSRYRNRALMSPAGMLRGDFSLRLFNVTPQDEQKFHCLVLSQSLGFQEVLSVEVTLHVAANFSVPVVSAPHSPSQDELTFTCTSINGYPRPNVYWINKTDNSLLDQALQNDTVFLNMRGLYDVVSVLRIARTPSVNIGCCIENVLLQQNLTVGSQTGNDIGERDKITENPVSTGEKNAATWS

[7] = molecular target: T1, human PD-L1 expressed on cell surface; experiment: flow cytometry, MDA-MB-231-GFP cells
Procedure: Cells were then resuspended in FACS buffer (1×DPBS/1% FBS) at 10⁶/ml concentration. One hundred microliter (100 μl) of cells were aliquoted into a single well in 96 well plates. The antibodies to be tested were serially diluted at 1:3 fold starting at 15 ug/mL and were then added into each well. The antibodies were mixed with cells and the mixtures were incubated on ice for 1 hour. […] After washing with FACS buffer, stained cells were resuspended at diluted […] (Biolegend, Cat #420404, used at 1:100 dilution) and analyzed on Guava 11HT (Luminex). Data was analyzed using Flowjo software.
(§1) Anti-HEL isotype control (Biolntron) was used as negative control.

[8] = molecular target: T2, cynomolgus PD-L1-His (Sino Biological, …); experiment: ELISA, coated cyno PD-L1-His
Procedure: (§2) Briefly, Maxisorp plates (Nunc) were coated with 100 ul/well of 0.5 μg/ml human PD-L1-His (Sino Biological, Cat #10084-H08H) or cynomolgus PD-L1-His (Sino Biological, Cat. 90251-C08H) protein diluted in 1×PBS (GIBCO) overnight at 4° C. Plates were washed three times with 300 μl/well washing buffer (1×PBST, diluted from 20×PBST (Thermo Scientific) with distilled water)) and then blocked with 300 μl/well of blocking buffer (1×PBST/I % BSA) for 2 hours at RT on shaker (100 rpm). Plates were washed and added with 100 μl/well of testing antibodies, which were serial diluted with assay buffer (PBST/1% BSA). The antibodies were incubated at room temperature for 2 hours on plate shaker at 100 rpm. Plates were washed. One hundred microliter of horseradish peroxidase (HRP) conjugated detection antibody was added into each well and incubated at room temperature for 1 hour on plate shaker at 100 rpm. Plates were washed and added with 100 μl/well TMB substrate for color development at room temperature in dark for up to 10 minutes. After addition of 50 μl/well of stop solution (1N H₂SO₄), plates were read at 450 nm on a plate reader (SpectraMax M5).
as §1

[9] = molecular target: T7, human PD-L1-His (Sino Biological, Cat #10084-H08H) (human, UniProt Q9NZQ7 19-238); experiment: BLI (Gator), antibody on HFC probe, human PD-L1-His in solution
T7 construct: Bought protein; also called human PD-L1 ECD-His; recombinant human PD-L1-His protein; not shown: His tag
Procedure: The affinity of the binding of the exemplary anti-PD-L1 antibodies of the present disclosure was determined. Assay was performed according to the protocol recommended by Gator or Gator Plus (Gator Bio Inc.). Briefly, human PD-L1-His (Sino Biological, Cat #10084-H08H) was serially diluted 4-fold, starting at 4 μg/ml. After three times of regeneration in generation buffer (Gator Bio, Cat #120012) and neutralization of HFC probe (Gator Bio, Cat #160003), 1 μg/ml of antibody to be tested in Q buffer (Gator Bio, Cat #120010) was immobilized onto HFC probe. After a baseline step, probe immobilized with antibody was dipped into antigen solutions. The association and dissociation of antigen from antibody was measured on BLI machine Gator. Affinity was calculated using Gator Bio analysis software.
Table 22 below summarizes the binding affinity to human PD-L1 using Gator.

[10] = molecular target: T7, human PD-L1-His (Sino Biological, Cat …); experiment: ELISA, coated human PD-L1-His
Procedure: as §2, §1

T1 sequence (Q9NZQ7 19-290 limits assumed): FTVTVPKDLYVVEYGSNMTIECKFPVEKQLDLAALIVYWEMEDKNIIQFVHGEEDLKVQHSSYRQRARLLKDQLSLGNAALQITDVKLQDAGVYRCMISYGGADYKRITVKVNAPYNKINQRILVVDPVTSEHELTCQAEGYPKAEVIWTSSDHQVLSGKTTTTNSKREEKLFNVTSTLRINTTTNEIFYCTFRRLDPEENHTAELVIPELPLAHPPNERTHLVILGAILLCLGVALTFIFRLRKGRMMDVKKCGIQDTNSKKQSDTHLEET
T7 sequence (Q9NZQ7 19-238): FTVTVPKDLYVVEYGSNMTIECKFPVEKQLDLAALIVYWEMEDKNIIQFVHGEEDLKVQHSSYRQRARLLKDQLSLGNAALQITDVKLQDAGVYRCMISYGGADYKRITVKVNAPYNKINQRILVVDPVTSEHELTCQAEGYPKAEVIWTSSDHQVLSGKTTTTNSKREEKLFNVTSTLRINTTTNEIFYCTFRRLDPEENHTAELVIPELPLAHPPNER
T2 sequence (Q9NZQ7 other isoform, or with tags, fused parts or gaps C08H C08H limits assumed): as the sequence (Q9NZQ7 19-238) above, with A33T, A34S, S62N, R68Q, Q82R, F173L, T185A, T192I, H215L counted along it
T3 sequence (D4AE25 entry or part of it R08H R08H limits assumed): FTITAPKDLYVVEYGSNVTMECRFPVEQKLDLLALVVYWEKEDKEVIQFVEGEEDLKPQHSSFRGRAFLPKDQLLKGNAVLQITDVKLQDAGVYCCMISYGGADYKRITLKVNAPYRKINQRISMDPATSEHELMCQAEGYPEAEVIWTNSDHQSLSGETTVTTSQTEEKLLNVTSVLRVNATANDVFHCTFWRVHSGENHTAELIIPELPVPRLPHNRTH

Internalization (%), FACS, 0.25 µg/ml, 2 h [1]: 2.2%
Internalization (%), FACS, 0.25 µg/ml, 4 h [1]: -25.9%
Internalization (%), FACS, 0.5 µg/ml, 2 h [1]: 0.4%
Internalization (%), FACS, 0.5 µg/ml, 4 h [1]: 5.6%
Internalization (%), FACS, 1 µg/ml, 2 h [1]: 1.1%
Internalization (%), FACS, 1 µg/ml, 4 h [1]: 7.2%
Internalization (%), FACS, 2 µg/ml, 2 h [1]: 2.4%
Internalization (%), FACS, 2 µg/ml, 4 h [1]: 7.6%
Kd [2]: 0.53 nM
koff [2]: 7e-05 s⁻¹
kon [2]: 133000 M⁻¹ s⁻¹
binding result [3]: no binding
binding result [4]: no binding
binding result [5]: no binding
binding result [6]: no binding
EC50 [7]: 18.5 nM
EC50 [8]: 0.179 nM
Kd [9]: 0.31 nM
koff [9]: 0.000113 s⁻¹
kon [9]: 371000 M⁻¹ s⁻¹
EC50 [10]: 0.106 nM
B1: 32E2 (antibody, human IgG1, V domains shown)
VH: QEQLEESGGDLVKPEGSLTLTCTASGFSFSSSYYMSWVRQAPGMGLEWIASISGGVTDNAYYASWAKGRFTVSKTSSTTVTLQLTSLTAADTATYFCARDSSSGYFFLLWGPGTLVTVSS
VL: LVMTQTPSSVSAAVGGTVTINCQASQNIYSNLAWYQQKPGQRPKLLIFGASNLRSGVPSRFKGSGSGTEYTLTISDLECADAATYYCQEGYSIGNVDNPFGGGTEVVVK

Internalization (%), FACS, 0.25 µg/ml, 2 h [1]: 20.4%
Internalization (%), FACS, 0.25 µg/ml, 4 h [1]: 17.6%
Internalization (%), FACS, 0.5 µg/ml, 2 h [1]: 12%
Internalization (%), FACS, 0.5 µg/ml, 4 h [1]: 19.9%
Internalization (%), FACS, 1 µg/ml, 2 h [1]: 15.3%
Internalization (%), FACS, 1 µg/ml, 4 h [1]: 15.5%
Internalization (%), FACS, 2 µg/ml, 2 h [1]: 8.3%
Internalization (%), FACS, 2 µg/ml, 4 h [1]: 6%
Kd [2]: 0.33 nM
koff [2]: 0.000132 s⁻¹
kon [2]: 403000 M⁻¹ s⁻¹
binding result [3]: no binding
binding result [4]: no binding
binding result [5]: no binding
binding result [6]: no binding
EC50 [7]: 0.1 nM
EC50 [8]: 0.0177 nM
Kd [9]: 0.09 nM
koff [9]: 7.6e-05 s⁻¹
kon [9]: 810000 M⁻¹ s⁻¹
EC50 [10]: 0.0159 nM
B2: 28B3 (antibody, human IgG1, V domains shown)
VH: QSVEESGGRLVTPGTPLTLSCTASGFSLSSYYMIWVRQAPGKGLEYIGYVYTGSGNTWYASWAKGRFAISKASTTVDLMITSPTTEDTATYFCASGADGVYDWGWDIWGPGTLVTVSL
VL: DIVMTQTPASVEAAVGDTVTIKCQASQSIYSLLAWYQQKPGQRPKLLIAGASNLESGVPSRFSGSGSGTEYTLTISALECADAATYYCQNNYDSGRIYGLAFGGGTEVVVK

Internalization (%), FACS, 0.25 µg/ml, 2 h [1]: 15.2%
Internalization (%), FACS, 0.25 µg/ml, 4 h [1]: 12.3%
Internalization (%), FACS, 0.5 µg/ml, 2 h [1]: 17%
Internalization (%), FACS, 0.5 µg/ml, 4 h [1]: 14.2%
Internalization (%), FACS, 1 µg/ml, 2 h [1]: 14.4%
Internalization (%), FACS, 1 µg/ml, 4 h [1]: 12.4%
Internalization (%), FACS, 2 µg/ml, 2 h [1]: 17.8%
Internalization (%), FACS, 2 µg/ml, 4 h [1]: 12.6%
Kd [2]: 0.23 nM
koff [2]: 8.1e-05 s⁻¹
kon [2]: 350000 M⁻¹ s⁻¹
binding result [3]: no binding
binding result [4]: no binding
binding result [5]: no binding
binding result [6]: no binding
EC50 [7]: 0.34 nM
EC50 [8]: 0.013 nM
Kd [9]: 0.61 nM
koff [9]: 0.000329 s⁻¹
kon [9]: 536000 M⁻¹ s⁻¹
EC50 [10]: 0.0171 nM
B3: 33H7 (antibody, human IgG1, V domains shown)
VH: QEQLVESGGGLVQPEGSLTVTCTASGFDLSRYFYMSWVRQAPGKGLEWIASISTGSDITDYASWAKGRFTISKTSSTTVTLQMTTLTAADTAIYFCARWTSGGGGFGLWGPGTLVTVSS
VL: QVLTQTASPVSAAVGGTVTLNCQSSQSIYNNYLSWYQQRAGQPPKLLIYSTATLASGVPSRFKGSGSGTQFTLTISEIQCEDAATYYCQGYYSGYIWTFGGGTEVVVK

Internalization (%), FACS, 0.25 µg/ml, 2 h [1]: 20.9%
Internalization (%), FACS, 0.25 µg/ml, 4 h [1]: 21.6%
Internalization (%), FACS, 0.5 µg/ml, 2 h [1]: 22.8%
Internalization (%), FACS, 0.5 µg/ml, 4 h [1]: 25.8%
Internalization (%), FACS, 1 µg/ml, 2 h [1]: 20.4%
Internalization (%), FACS, 1 µg/ml, 4 h [1]: 23.3%
Internalization (%), FACS, 2 µg/ml, 2 h [1]: 29.6%
Internalization (%), FACS, 2 µg/ml, 4 h [1]: 30.2%
Kd [2]: 0.93 nM
koff [2]: 0.000202 s⁻¹
kon [2]: 218000 M⁻¹ s⁻¹
binding result [3]: no binding
binding result [4]: no binding
binding result [5]: no binding
binding result [6]: no binding
EC50 [7]: 1.19 nM
EC50 [8]: 0.0414 nM
Kd [9]: 1.16 nM
koff [9]: 0.000418 s⁻¹
kon [9]: 361000 M⁻¹ s⁻¹
EC50 [10]: 0.0399 nM
B4: 33E8 (antibody, human IgG1, V domains shown)
VH: QSLEESGGDLVKPGASLTLTCTASGFYFSSGYDMSWVRQAPGKGLEWIASIFTTSGSTWYANWAKGRFTISKTSSTTVTLQMTSLTDADTATYFCTKDGVGSFYMNLWGPGTLVTVSS
VL: LVMTQTPASVEVAVGGTVTIKCQASQTIGSNLAWYQQRPGQPPKLLIYKAFTLASGVSSRFKGSGSGTQFTLTISGVECADAATYYCQQGATRINIDNAFGGGTEVVVK
